Source: paper PMC13638050

Key:
[1] = target: H3N2 A/Singapore/INFIMH-16-0019/2016 (H3/Sing16) HA (influenza A virus H3N2 A/Singapore/INFIMH-16-0019/2016); experiment: BLI
[2] = target: influenza B/Lee/1940 (B/Lee40) HA (influenza B virus B/Lee/1940); experiment: BLI
Chain of influenza B/Lee/1940 (B/Lee40) HA (influenza B virus B/Lee/1940) (P03460 16-552 limits assumed): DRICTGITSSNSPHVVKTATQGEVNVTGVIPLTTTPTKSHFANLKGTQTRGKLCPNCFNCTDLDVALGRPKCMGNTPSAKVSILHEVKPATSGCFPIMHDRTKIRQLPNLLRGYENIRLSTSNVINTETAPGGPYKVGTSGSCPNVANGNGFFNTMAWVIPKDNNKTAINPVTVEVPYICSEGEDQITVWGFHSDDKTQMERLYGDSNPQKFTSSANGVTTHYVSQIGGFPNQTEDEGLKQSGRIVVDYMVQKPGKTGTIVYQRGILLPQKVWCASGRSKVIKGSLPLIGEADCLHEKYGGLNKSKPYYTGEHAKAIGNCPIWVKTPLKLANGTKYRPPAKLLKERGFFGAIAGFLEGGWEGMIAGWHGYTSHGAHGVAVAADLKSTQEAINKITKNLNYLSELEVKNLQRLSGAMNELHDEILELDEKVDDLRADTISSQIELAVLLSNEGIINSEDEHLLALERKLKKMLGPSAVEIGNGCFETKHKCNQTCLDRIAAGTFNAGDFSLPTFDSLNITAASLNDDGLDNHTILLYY

Substance: somatic CR9114 Fab
- Kd [1]: 0.036 µM
- Kd [2]: 0.11 µM
